Results: patent US12692310B2, “ASIC1 channel antagonist antibody” (ShanghaiTech University, priority 2019, dated 2026)

Legend:
[1] = target: T1, hASIC1a-eYFP (Homo sapiens, UniProt P78348); experiment: Species/subtype selectivity, FACS binding and ICC, transfected CHO-K1 cells; assay type: cell-based; parameters: overexpress the full-length hASIC1a (1-528 amino acids) protein fused with eYFP; expressed in transfected cells; host or cells: CHO-K1, transient
T1 sequence (P78348 1-528): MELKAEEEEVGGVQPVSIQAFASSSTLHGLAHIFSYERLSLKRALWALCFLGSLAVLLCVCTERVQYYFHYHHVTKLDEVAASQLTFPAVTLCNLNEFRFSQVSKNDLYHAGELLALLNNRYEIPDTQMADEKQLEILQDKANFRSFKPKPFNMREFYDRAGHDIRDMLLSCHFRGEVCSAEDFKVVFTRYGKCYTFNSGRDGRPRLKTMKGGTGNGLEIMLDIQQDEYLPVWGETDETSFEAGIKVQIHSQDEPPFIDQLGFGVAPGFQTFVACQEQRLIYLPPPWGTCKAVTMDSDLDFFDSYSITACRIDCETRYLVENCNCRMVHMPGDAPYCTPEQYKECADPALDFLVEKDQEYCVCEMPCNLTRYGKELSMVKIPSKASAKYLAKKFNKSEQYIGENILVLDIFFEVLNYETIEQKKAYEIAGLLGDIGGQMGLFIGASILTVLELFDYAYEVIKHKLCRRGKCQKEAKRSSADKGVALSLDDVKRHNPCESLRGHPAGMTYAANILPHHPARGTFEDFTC
Protocol: Cell Membrane Colocalization Studies Using Immunocytochemistry (ICC). Cells (CHO-K1) were seeded onto the poly-D-lysine-coated glass bottom 24-well plates at a concentration of 2×10^5 cells per mL. After 12 h of cultivation, the CHO-K1 cells were transfected with ASIC plasmids by Lipofectin 3000 reagent. Twenty-four hours after transfection, the cells were fixed in 4% paraformaldehyde and incubated for 30 min in a blocking solution (5% goat serum in PBS). The resulting cells were incubated with […] ASC06-IgG1 at 4° C. overnight followed by three PBS washes for 5 min each and incubation with the Alexa555-conjugated goat anti-human secondary antibody (Life Technology). After three additional PBS washes for 5 min each, the nuclei of the cells were stained with DAPI (#10236276001; Roche). The ICC analysis was performed on a laser scanning confocal microscopy (ZEISS LSM710) with a 63×N.A. 1.4 objective at 25° C. Images were collected on a 1,024×1,024-pixel EM-CCD camera. […]
To test the species and subtype selectivity of ASC06-IgG1, vectors encoding human ASIC1b-eYFP fusion, rat ASIC1a-eYFP fusion, mouse ASIC1a-eYFP fusion, hASIC2a-eYFP fusion, hASIC2b-eYFP fusion, and hASIC3a-eYFP fusion were constructed. […] FACS binding assay and immunocytochemistry (ICC) were carried out to determine if ASC06-IgG1 is able to bind to the cell surface-expressed ASIC homologs and isotypes.

[2] = test system: MCAO-induced ischemic stroke model mice; experiment: Middle cerebral artery occlusion (MCAO)-induced ischemic stroke model; assay type: in vivo, mouse; settings: 4 μL i.c.v. 3 h after ischemia; 100 nM PcTx1 or 3.0 μg/μL ASC06-IgG1; 24 h after injection
Protocol: The Middle Cerebral Artery Occlusion (MCAO) Model. Animal care and the experimental protocols were approved by the Animal Ethics Committee of Shanghai Jiao Tong University School of Medicine, Shanghai, China. A transient ischemic stroke in the left brain hemisphere was established in male mice (C57 BL/6, 20-25 g) using middle cerebral artery occlusion (MCAO) for 1 h before reperfusion. Three hours after ischemia, a total of 4 μL of vehicle solution (PBS) in the absence or presence of neuroprotective agents) 100 nM PcTx1 or 3.0 μg/μL endotoxin-free ASC06-IgG1 ([…])) was administered by an intracerebroventricular (i.c.v.) injection on the contralateral side of the brain hemisphere. An irrelevant endotoxin-free antibody (3.0 μg/μL, […]) was used as isotype control. […] Mice were sacrificed 24 h after the i.c.v. injection. […] The infarct area was calculated by subtracting the normal area stained with TTC in the ischemic hemisphere from that of the nonischemic hemisphere. The infarct volume was calculated by summing infarction areas of all sections and multiplying by slice thickness.
To determine if the protective effect of antibody ASC06-IgG1 in vitro could be extended to pathologies in vivo, the middle cerebral artery occlusion (MCAO) model was used to study the antibody's neuroprotective effect. […] The infarct volume of the cortex and striatum were calculated 24 hours after the injection. […]

[3] = test system: hASIC1a F252A; experiment: FACS binding to alanine mutant hASIC1a-eYFP on CHO-K1 cells; assay type: cell-based, human; settings: vs WT hASIC1a
Protocol: To confirm the role of these amino acids, alanine mutagenesis was performed and four amino acids are very important for antibody binding were identified. Plasmid encoding single amino acid mutation of hASIC1a-eYFP was constructed and transient transfected into CHO-K1 cells. FACS binding assay was then performed to test whether the ASC06-IgG1 still binds to cell surface expressing mutated hASIC1a.

[4] = target: T2, rASIC1a-eYFP (Rattus norvegicus, UniProt P55926); experiment: Species/subtype selectivity, FACS binding and ICC, transfected CHO-K1 cells; assay type: cell-based
T2 construct: expressed in transfected cells; host or cells: CHO-K1, transient
T2 sequence (P55926 1-526): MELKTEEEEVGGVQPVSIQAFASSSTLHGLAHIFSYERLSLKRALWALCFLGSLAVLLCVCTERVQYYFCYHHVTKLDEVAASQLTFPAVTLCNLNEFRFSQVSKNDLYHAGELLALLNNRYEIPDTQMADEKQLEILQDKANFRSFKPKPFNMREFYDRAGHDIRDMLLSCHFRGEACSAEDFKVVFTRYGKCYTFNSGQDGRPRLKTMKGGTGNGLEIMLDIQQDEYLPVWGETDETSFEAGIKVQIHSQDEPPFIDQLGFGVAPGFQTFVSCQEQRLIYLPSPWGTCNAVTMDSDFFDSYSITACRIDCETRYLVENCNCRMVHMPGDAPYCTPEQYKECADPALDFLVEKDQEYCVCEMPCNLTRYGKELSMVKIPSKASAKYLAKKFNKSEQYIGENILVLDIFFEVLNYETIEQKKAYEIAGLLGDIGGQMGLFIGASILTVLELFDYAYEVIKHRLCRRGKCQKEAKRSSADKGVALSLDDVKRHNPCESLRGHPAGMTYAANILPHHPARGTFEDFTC
Protocol: Cell Membrane Colocalization Studies Using Immunocytochemistry (ICC). Cells (CHO-K1) were seeded onto the poly-D-lysine-coated glass bottom 24-well plates at a concentration of 2×10^5 cells per mL. After 12 h of cultivation, the CHO-K1 cells were transfected with ASIC plasmids by Lipofectin 3000 reagent. Twenty-four hours after transfection, the cells were fixed in 4% paraformaldehyde and incubated for 30 min in a blocking solution (5% goat serum in PBS). The resulting cells were incubated with […] ASC06-IgG1 at 4° C. overnight followed by three PBS washes for 5 min each and incubation with the Alexa555-conjugated goat anti-human secondary antibody (Life Technology). After three additional PBS washes for 5 min each, the nuclei of the cells were stained with DAPI (#10236276001; Roche). The ICC analysis was performed on a laser scanning confocal microscopy (ZEISS LSM710) with a 63×N.A. 1.4 objective at 25° C. Images were collected on a 1,024×1,024-pixel EM-CCD camera. Data acquisition and analyses were performed with the ZEN 2012 professional software.
To test the species and subtype selectivity of ASC06-IgG1, vectors encoding human ASIC1b-eYFP fusion, rat ASIC1a-eYFP fusion, mouse ASIC1a-eYFP fusion, hASIC2a-eYFP fusion, hASIC2b-eYFP fusion, and hASIC3a-eYFP fusion were constructed. The CHO-K1 cells were transiently transfected with these plasmids. FACS binding assay and immunocytochemistry (ICC) were carried out to determine if ASC06-IgG1 is able to bind to the cell surface-expressed ASIC homologs and isotypes.

B1: ASC06-IgG1: ASC06 antibody converted into a full length IgG1 form (antibody, V domains shown)
VH: QVQLQQSGGGLVQPGGSLRLSCAASGFTFSSYAMSWVRQAPGKGLEWVSAISGSGGSTYYADSVKGRFTISRDNSKNTLYLQMNSLRAEDTAVYYCAKDSFYGYSKGDWGQGTLVTVSS
VL: QSALTQPASVSGSPGQSITISCTGTSSDVGAYNYVSWYQQQPGKAPKLMIYGVSNRPSGVSNRFSGSKSGNAASLTISGLQAEDEADYYCSSYTSSSTYVFGTGTKLTVLG
FACS recognition of human ASIC1a ([1]; FACS): recognized | ICC membrane co-localization with hASIC1a-eYFP ([1]; ICC staining): membrane co-localization | infarct volume (compared with the contralateral brain region) [2]: about 23% | binding to hASIC1a F252A mutation [3]: so does | FACS recognition of rat ASIC1a ([4]; FACS): recognized | ICC membrane co-localization with rASIC1a-eYFP ([4]; ICC staining): membrane co-localization
